Results published in PMC11724882, “Molecular basis for the enzymatic inactivity of class III glutaredoxin ROXY9 on standard glutathionylated substrates” (Nature Communications, 2025).
Where “and” joins values, the source holds several entries; their conditions need not be identical. Equal values may be shown once.

How the values were obtained:
[1] = target: Cys23 (UniProt position 23, FSKTYCPYCVR); test: chemical modification; details: buffers at a normality of 0.1; no added salt stated; citrate pH 2.0-6.0; KH2PO4/Na2HPO4 pH 6.5-8.0; Na2B4O7 pH 8.5-10.0. Protein was desalted into 5 mM HEPES pH 7.0. 10 µl protein was mixed with 40 µl pH buffer and 5 µl 100 mM IAM.; Pre-reduced with 10 mM DTT and desalted; no glutathione or other ligand; native protein during the IAM step.
[2] = target: Cys23 (UniProt position 23, FSKTYCPYSVR); test: chemical modification; details: buffers at a normality of 0.1; no added salt stated; citrate pH 2.0-6.0; KH2PO4/Na2HPO4 pH 6.5-8.0; Na2B4O7 pH 8.5-10.0. Protein was desalted into 5 mM HEPES pH 7.0. 10 µl protein was mixed with 40 µl pH buffer and 5 µl 100 mM IAM.; Pre-reduced with 10 mM DTT and desalted; no glutathione or other ligand; native protein during the IAM step.
[3] = target: Cys21 (UniProt position 21, FTKSSCCLCYA); test: chemical modification; details: buffers at a normality of 0.1; no added salt stated; citrate pH 2.0-6.0; KH2PO4/Na2HPO4 pH 6.5-8.0; Na2B4O7 pH 8.5-10.0. Protein was desalted into 5 mM HEPES pH 7.0. 10 µl protein was mixed with 40 µl pH buffer and 5 µl 100 mM IAM.; Pre-reduced with 10 mM DTT and desalted; no glutathione or other ligand; native protein during the IAM step.
[4] = target: Cys21 (UniProt position 21, FTKSSCSLSYA); test: chemical modification; details: buffers at a normality of 0.1; no added salt stated; citrate pH 2.0-6.0; KH2PO4/Na2HPO4 pH 6.5-8.0; Na2B4O7 pH 8.5-10.0. Protein was desalted into 5 mM HEPES pH 7.0. 10 µl protein was mixed with 40 µl pH buffer and 5 µl 100 mM IAM.; Pre-reduced with 10 mM DTT and desalted; no glutathione or other ligand; native protein during the IAM step.
[5] = target: Cys22 (UniProt position 23, FIKPTCPFARK); details: cited from earlier work
[6] = target: Cys22 (UniProt position 23, FIKPTCPFSRK); details: cited from earlier work
[7] = target: Cys22 (UniProt position 23, FIKPTCPFCRK); details: cited from earlier work
[8] = target: the molecule itself; test: SEC; analytical gel filtration of the affinity-purified strep-MBP fusion proteins (purified in the presence of 5 mM GSH); strep-MBP-ROXY9 also after DTT treatment

Q: With “Glutaredoxin GRXC2 (class I GRX), strep-MBP fusion, wild type (Arabidopsis thaliana)” as the molecule, how does the pKa [1] read?
A: The pKa was “between 3.0 and 3.5”.

Q: With “Glutaredoxin GRXC2-CSS variant (only CysA retained), strep-MBP fusion (Arabidopsis thaliana; C26S;C80S)” as the molecule, how does the pKa [2] read?
A: The pKa was “between 3.5 and 4.0”.

Q: Which pKa [3] does the source give for “Glutaredoxin ROXY9 (class III / CC-type GRX, CEPD2), strep-MBP fusion, wild type (Arabidopsis thaliana)” here?
A: Its pKa is “between pH 4 and 4.5”.

Q: Which pKa [4] does the source give for “Glutaredoxin ROXY9 single-cysteine variant (only Cys21 retained), strep-MBP fusion (Arabidopsis thaliana; C22S;C24S;C49S;C61S)” here?
A: Its pKa is “between 6 and 7”.

Q: Which pKa [5] does the source give for “Pig glutaredoxin (liver thioltransferase) C25A (Sus scrofa; C25A)” here?
A: The pKa was 5.9.

Q: Which pKa [6] does the source give for “Pig glutaredoxin (liver thioltransferase) C25S (Sus scrofa; C25S)” here?
A: Its pKa is 4.9.

Q: For “Pig glutaredoxin (liver thioltransferase), wild type (Sus scrofa)”, which pKa [7] is on record?
A: The pKa was 3.8.

B1: strep-MBP-ROXY9 (enzyme, Arabidopsis thaliana, UniProt O82255 1-102, looked up)
chain: MDKVMRMSSEKGVVIFTKSSCCLCYAVQILFRDLRVQPTIHEIDNDPDCREIEKALLRLGCSTAVPAVFVGGKLVGSTNEVMSLHLSGSLVPLIKPYQSILY
notes: class III glutaredoxin ROXY9, Arabidopsis thaliana, AT2G47880; ORF inserted into a variant of MacroLab vector 438-C (modified pFastBac, Addgene plasmid 48296) in which the His-tag was exchanged for Strep-tag II; a TEV site lies between the tag and ROXY9; also called class III GRX ROXY9; CEPD2; source: Hi5 insect cells (baculovirus), purified (MBPTrap, eluted with maltose, 5 mM GSH in buffer)
Q: With B1 as the molecule, how does the “stoichiometry N” value [8] read?
A: The value was 2 and 3.
